Measurements: US20240182911A1 (University of California, published 2024)
Residue numbers refer to the chain shown, from its start. Like-named read-outs stand apart in the source and are kept apart here.

Experiments:
[1] = target: T1, receptor-binding domain (RBD) of the SARS-COV-2 spike (S) protein (SARS-COV-2, UniProt P0DTC2 319-541); assay: SPR kinetic
[2] = target: T1, receptor-binding domain (RBD) of the …; assay: SPR equilibrium
[3] = target: T1, receptor-binding domain (RBD) of the …; assay: SPR equilibrium; affinity measurement note: Saturation not reached
[4] = target: T1, receptor-binding domain (RBD) of the …; assay: SPR kinetic; remark: listed apart in the source
[5] = target: T1, receptor-binding domain (RBD) of the …; assay: SPR equilibrium; remark: listed apart in the source
[6] = target: T1, receptor-binding domain (RBD) of the …; assay: On-yeast EC50
[7] = target: T1, receptor-binding domain (RBD) of the …; assay: SPR kinetic; remark: listed apart in the source
[8] = target: T1, receptor-binding domain (RBD) of the …; assay: monovalent affinity, assay not named
[9] = target: T1, receptor-binding domain (RBD) of the …; assay: SPR equilibrium; remark: listed apart in the source

B1: RBD1i1 (VHH)
VHH: QVQLQESGGGLVQAGGSLRLSCAASGTISYENFMGWYRQAPGKERKLVAGINDGTNTYYADSVKGRFTISRDNAKNTVYLQMNSLKPEDTAVYYCAVIGASVLGHAYWGQGTQVTVSS
- Kd [1]: 48.1 nM
- koff [1]: 0.0023 s⁻¹
- kon [1]: 47700 M⁻¹ s⁻¹

B2: RBD1 (VHH)
VHH: B1 VHH with K46E, A100T
- Kd [1]: 1400 nM
- koff [1]: 0.0221 s⁻¹
- kon [1]: 15800 M⁻¹ s⁻¹

B3: RBD1i13 (VHH)
VHH: B1 VHH with E44G, K86E
- Kd [1]: 32.2 nM
- koff [1]: 0.00216 s⁻¹
- kon [1]: 67200 M⁻¹ s⁻¹

B4: RBD3i2 (VHH)
VHH: QAQLQESGGGLVQAGGSLRLSCAASGNISDFRFMGWYRQAPGKERELVAAIGRGSNTRYADSVKGRFTISRDNAKNTVYLQMNSLKPEDTAVYYCAARNATYPYYVYWGQGTQVTVSS
- Kd [2]: 128 nM

B5: RBD3 (VHH)
VHH: B4 VHH with A2V, R58Y
- Kd [3]: 6000 nM

B6: RBD3i17 (VHH)
VHH: B4 VHH with Y59C
- Kd [2]: 230 nM

B7: RBD6i10 (VHH)
VHH: QVQLQESGGGLVQAGGSLRLNCAASGSISTTYLMGWYRQAPGKERKFVATINRGGSTYYAVSVKGRFTISRDNAKNTVYLQMNSLKPEDTAVYYCAVGWPDPDYGLAYHRYWGQGTQVTVNS
- Kd [4]: 597 nM
- koff [4]: 0.00568 s⁻¹
- kon [4]: 9500 M⁻¹ s⁻¹

B8: RBD6 (VHH)
VHH: B7 VHH with N21S, K46E, V61D, N121S
- Kd [1]: 990 nM
- koff [1]: 0.00892 s⁻¹
- kon [1]: 9010 M⁻¹ s⁻¹

B9: RBD6i13 (VHH)
VHH: B7 VHH with D103G
- Kd [5]: 558 nM

B10: RBD6id (VHH)
VHH: B7 VHH with S25N, K46E, V61I, N121S
- Kd [4]: 263 nM
- koff [4]: 0.00271 s⁻¹
- kon [4]: 10300 M⁻¹ s⁻¹

B11: RBD7i12 (VHH)
VHH: QVQLQESGGGLVQAGGSLRLSCAASGYISGAYYMGWYRQAPGKEREFVAGIGGGSTNYADSVKGRFTISRDNAKNTVYLQMNSLKPEDTAVYYCAVYQSVAYYCRGYFSYWGQGTQVTVSS
- Kd [5]: 2590 nM

B12: RBD7 (VHH)
VHH: B11 VHH with C104Y
- Kd [5]: 2210 nM

B13: RBD7i13 (VHH)
VHH: B11 VHH with E46K
- Kd [5]: 659 nM

B14: RBD8 (VHH)
VHH: QVQLQESGGGLVQAGGSLRLSCAASGTIFGGPWMGWYRQAPGKEREFVAAIARGGNTNYADSVKGRFTISRDNAKNTVYLQMNSLKPEDTAVYYCAARDAVYPYLKYWGQGTQVTVSS
- EC50 [6]: 80.8 nM

B15: RBD8i1 (VHH)
VHH: B14 VHH with F29S
- EC50 [6]: 35.4 nM

B16: RBD9 (VHH)
VHH: QVQLQESGGGLVQAGGSLRLSCAASGYIFYSRRMGWYRQAPGKEREFVATIGHGTSTYYADSVKGRFTISRDNAKNTVYLQMNSLKPEDTAVYYCAALPRPHGAGTADARYNLWYWGQGTQVTVSS
- EC50 [6]: 131 nM

B17: RBD9i10 (VHH)
VHH: B16 VHH with T55A, D61G, N83D
- EC50 [6]: 15.2 nM

B18: RBD10i10 (VHH)
VHH: QVQLQESGGGLVQAGGSLRLSCAASGTIFQVGSMGWYRQAPGKGRKFVATIADGGSTNYAGSVKGRFTISRDNAKNTVYLQMNSLKPEDTAVYYCAALGQVSEYNSASYEWTYPYWGQGTQVTVSS
- Kd [7]: 2.14 nM
- kon [7]: 154000 M⁻¹ s⁻¹

B19: RBD10 (VHH)
VHH: B18 VHH with G44E, K46E, G55S, G61D
- Kd [7]: 417 nM
- koff [7]: 0.00552 s⁻¹
- kon [7]: 13200 M⁻¹ s⁻¹

B20: RBD10i14 (VHH)
VHH: B18 VHH with M34V, G55S
- koff [7]: 0.000118 s⁻¹
- kon [7]: 167000 M⁻¹ s⁻¹
- Kd [8]: 0.72 nM

B21: RBD11 (VHH)
VHH: QVQLQESGGGLVQAGGSLRLSCAASGNIFAKVWMGWYRQAPGKEREFVASIANGATTYYADSVKGRFTISRDNAKNTVYLQMNSLKPEDTAVYYCAARNWSGLGHFYWGQGTQVTVSS
- Kd [9]: 2420 nM

B22: RBD11i12 (VHH)
VHH: B21 VHH with E44G, H105Y, G109S
- Kd [9]: 316 nM
